“Also recorded” adds a separate entry of the source.
T1: CCR7 (Homo sapiens, UniProt P32248)
T1 sequence (P32248 25-378): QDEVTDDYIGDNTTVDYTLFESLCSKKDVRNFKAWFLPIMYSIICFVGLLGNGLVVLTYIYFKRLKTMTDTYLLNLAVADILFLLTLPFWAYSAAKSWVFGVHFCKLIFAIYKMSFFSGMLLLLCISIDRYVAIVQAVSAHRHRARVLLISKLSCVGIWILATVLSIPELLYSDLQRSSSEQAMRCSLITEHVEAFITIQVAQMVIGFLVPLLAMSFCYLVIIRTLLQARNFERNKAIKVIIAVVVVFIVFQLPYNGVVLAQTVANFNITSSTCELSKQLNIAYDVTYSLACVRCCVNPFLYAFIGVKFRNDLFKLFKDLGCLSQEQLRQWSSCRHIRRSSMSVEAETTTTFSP


Key:
CXCR4 = CXCR4 (Homo sapiens, UniProt P61073); experiment: [125I]-CXCL12 competition binding on membranes from HEK293T cells transiently expressing CXCR4; settings: for affinity to CXCR4: in words; for displacement of specifically bound [125I]-CXCL12: purified ligands, highest Nanobody test concentration 0.5 μM; for Binding (binding efficiency, competition binding with [125I]-CXCL12): screening of Nanobody clone pools
CCR7 = target: T1, CCR7; experiment: CRE/β-galactosidase reporter gene selectivity screen, CCR7; format: cell-based; settings: up to 2.5, forskolin 3 μM, agonist at 50-80% Emax
histamine H4 receptors = histamine H4 receptors (Homo sapiens, UniProt Q9H3N8); experiment: CRE/β-galactosidase reporter gene selectivity screen, histamine H4 receptor; format: cell-based; settings: up to 2.5, forskolin 3 μM, agonist at 50-80% Emax
[1] = membranes from HEK293T cells transiently expressing CXCR4
[2] = membranes from HEK293T cells transiently expressing CXCR4, mean ± S.E.M.

Chain of CXCR4 (P61073 whole entry): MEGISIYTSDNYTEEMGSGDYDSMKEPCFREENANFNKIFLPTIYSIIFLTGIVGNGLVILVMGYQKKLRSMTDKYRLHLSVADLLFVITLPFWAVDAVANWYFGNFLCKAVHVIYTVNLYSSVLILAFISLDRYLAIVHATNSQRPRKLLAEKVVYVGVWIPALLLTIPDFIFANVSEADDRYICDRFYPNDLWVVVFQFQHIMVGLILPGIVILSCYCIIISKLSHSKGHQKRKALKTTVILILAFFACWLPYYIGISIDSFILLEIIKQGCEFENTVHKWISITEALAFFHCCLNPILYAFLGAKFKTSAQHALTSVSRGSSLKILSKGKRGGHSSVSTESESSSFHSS
Chain of histamine H4 receptors (Q9H3N8 whole entry): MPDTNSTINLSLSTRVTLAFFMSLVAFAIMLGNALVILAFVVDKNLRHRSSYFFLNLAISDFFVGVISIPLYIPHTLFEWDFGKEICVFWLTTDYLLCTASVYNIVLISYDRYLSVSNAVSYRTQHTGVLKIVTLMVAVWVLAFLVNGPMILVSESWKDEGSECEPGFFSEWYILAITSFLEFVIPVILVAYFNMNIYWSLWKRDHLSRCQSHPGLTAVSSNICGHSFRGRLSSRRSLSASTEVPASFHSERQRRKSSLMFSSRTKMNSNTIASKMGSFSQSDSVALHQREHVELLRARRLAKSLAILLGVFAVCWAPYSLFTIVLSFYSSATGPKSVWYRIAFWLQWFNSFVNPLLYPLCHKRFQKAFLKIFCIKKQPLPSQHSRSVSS

Molecule	affinity to CXCR4 (CXCR4)	displacement of specifically bound [125I]-CXCL12 (CXCR4)	Binding (binding efficiency, competition binding with [125I]-CXCL12) (CXCR4; [1])	effect on agonist-induced response at CCR7 (CCR7)	effect on agonist-induced response at histamine H4 receptors (histamine H4 receptors)	Displacem. (%) of [125I]-CXCL12 (maximal displacement) (CXCR4; [2]) [%]	pKi, [125I]-CXCL12 (CXCR4; [2])
238D4: Nanobody (VHH) raised against human CXCR4, SEQ ID NO: 239 (protein, Nanobody, Nanobody constructs or fragments thereof) VHH: EVQLMESGGGLVQAGGSLRLSCAASGRTFNNYAMGWFRRAPGKEREFVAAITRSGVRSGVSAIYGDSVKDRFTISRDNAKNTLYLQMNSLKPEDTAVYTCAASAIGSGALRRFEYDYSGQGTQVTVSS	low nanomolar range	fully displace	++ (++ = 70-100%)	do not act as agonists or antagonists; also recorded: do not alter	do not act as agonists or antagonists; also recorded: do not alter	–	–
238D2: Nanobody (VHH) raised against human CXCR4, SEQ ID NO: 238 (protein, Nanobody, Nanobody constructs or fragments thereof) VHH: EVQLVESGGGLVQTGGSLRLSCAASGFTFSSYAMSWVRQAPGKGLEWVSGIKSSGDSTRYAGSVKGRFTISRDNAKNMLYLQMYSLKPEDTAVYYCAKSRVSRTGLYTYDNRGQGTQVTVSS	low nanomolar range	fully displace	++ (++ = 70-100%)	do not act as agonists or antagonists; also recorded: do not alter	do not act as agonists or antagonists; also recorded: do not alter	93 ± 5	8.01 ± 0.12

From patent US9212226B2, “Amino acid sequences directed against CXCR4 and other GPCRs and compounds comprising the same” (Ablynx N.V., priority 2008, dated 2015)
